Measured values published in patent US10400249B2, “HPPD variants and methods of use” (priority 2014, dated 2019).
Where a chain is given by its changes, count along the chain named. Numbers in names are those of the source.

System: maize T0 events
Test: greenhouse spray test of maize T0 events for tolerance to Cmpd. 4
Assay type: in vivo
Conditions: Cmpd. 4 at 100 g AI/ha; for number of maize T0 events in herbicide tolerance class 0 (41%-100% damaged leaf area) / number of maize T0 events in herbicide tolerance class 1 (16%-41% damaged leaf area) / number of maize T0 events in herbicide tolerance class 2 (6%-15% damaged leaf area) / number of maize T0 events in herbicide tolerance class 3 (0%-5% damaged leaf area): six days after application
Description: Constructing the plant expression cassette for stable expression in the maize plant and maize transformation are well known in the art and in this particular example the methods were described and used from the PCT patent publication WO2014/043435 and WO2008/100353. The polynucleotide sequences encoding the HPPD variants in this application have been stacked with a DNA sequence encoding an EPSPS protein variant to confer tolerance to herbicides, which target the EPSPS. The EPSPS gene was isolated and mutated from Arthrobacter globiformis (WO2008/100353) and joined in-frame to a transit peptide sequence to guide translocation of the translated protein to the chloroplast.
The corresponding HPPD variants were cloned with the same promoter, chloroplast transit peptide, and terminator sequence as described for the EPSPS gene expression cassette. The coding sequences for both genes have been codon optimized for maize expression. For the maize transformation ears are best collected 8-12 days after pollination. Embryos were isolated from the ears, and those embryos 0.8-1.5 mm in size were preferred for use in transformation. Embryos were plated scutellum side-up on a suitable incubation media, and incubated overnight at 25° C. in the dark.
However, it was not necessary per se to incubate the embryos overnight. Embryos are contacted with an Agrobacterium strain containing the appropriate vectors having a nucleotide sequence of the present invention for Ti plasmid mediated transfer for about 5-10 min, and then plated onto co-cultivation media for about 3 days (25° C. in the dark). After co-cultivation, explants were transferred to recovery period media for about five days (at 25° C. in the dark). Explants were incubated in selection media with glyphosate for up to eight weeks, depending on the nature and characteristics of the particular selection utilized. After the selection period, the resulting callus were transferred to embryo maturation media, until the formation of mature somatic embryos is observed. The resulting mature somatic embryos were then placed under low light, and the process of regeneration was initiated as known in the art. The resulting shoots were allowed to root on rooting media, and the resulting plants were transferred to nursery pots and propagated as transgenic plants. Plants were routinely analyzed for the expression and presence of the transgenes using the ELISA protein detection method. Only plants recovering in the selection media and having a detectable HPPD transgene protein expression were used for the herbicide tolerance analysis.
Regenerated T0 events from tissue culture were transplanted into two inch square pots with synthetic soil (Fafard® Mix) and controlled-released fertilizer (Haifa Multicote™; polymer-coated controlled-release fertilizer, NPK Pro 18-6-12+ Micronutrients) and cultivated in the greenhouse (GH) under supplementary high pressure sodium light for 12 days at a maximum of 30° C. during the day and a minimum of 22° C. at night. Fully recovered plants were transferred into five inch square pots filled with synthetic soil and control released fertilizer under the same environmental conditions. After seven days the T0 plants have been sprayed with 2-chloro-3-(methylsulfanyl)-N-(1-methyl-1H-tetrazol-5-yl)-4-(trifluoromethyl)benzamide (Cmpd. 4); at agronomic relevant concentration of 100 g AI/ha (with “g AI/ha” meaning “gram of active ingredient per hectare”) prepared from a WP20 (wettable powder 20%) formulation supplemented with esterified vegetable oil mixture (Hasten™ spray adjuvants, 0.578% v/v) and ammonium sulphate (AMS, 0.97% w/v). The herbicide treatment was conducted in a DeVries Tracker Sprayer system with standard application protocols, which are well known in the art. As a spray control T0 events have been sprayed with the adjuvant mixture lacking the herbicide. […]

B1: FLP136: PfHPPD variant P215L, E335P, G336F (protein)
chain: MADLYENPMGLMGFEFIEFASPTPGTLEPIFEIMGFTKVATHRSKNVHLYRQGEINLILNNEPNSIASYFAAEHGPSVCGMAFRVKDSQKAYNRALELGAQPIHIDTGPMELNLPAIKGIGGAPLYLIDRFGEGSSIYDIDFVYLEGVERNPVGAGLKVIDHLTHNVYRGRMVYWANFYEKLFNFREARYFDIKGEYTGLTSKAMSAPDGMIRILLNEESSKGAGQIEEFLMQFNGEGIQHVAFLTDDLVKTWDALKKIGMRFMTAPPDTYYEMLEGRLPDHGEPVDQLQARGILLDGSSVEGDKRLLLQIFSETLMGPVFFEFIQRKGDDGFGPFNFKALFESIERDQVRRGVLTAD
modifications: HPPD variant - FLP136
notes: PfHPPD variant P215L, E335P, G336F
- share of tested maize events with good to high tolerance, 15% or less bleached leaf area: Approximately 40%
- share of tested maize events with less than 5% or no visual leaf damage: ~15%
- number of maize T0 events in herbicide tolerance class 0 (41%-100% damaged leaf area): 13
- number of maize T0 events in herbicide tolerance class 1 (16%-41% damaged leaf area): 37
- number of maize T0 events in herbicide tolerance class 2 (6%-15% damaged leaf area): 21
- number of maize T0 events in herbicide tolerance class 3 (0%-5% damaged leaf area): 13

B2: FLP202: PfHPPD variant P215L, E335P, G336F, A340E (protein)
chain: B1 chain with A340E
modifications: HPPD variant - FLP202
notes: PfHPPD variant P215L, E335P, G336F, A340E
- share of tested maize events with good to high tolerance, 15% or less bleached leaf area: More than 30%
- share of tested maize events with less than 5% or no visual leaf damage: ~13%
- number of maize T0 events in herbicide tolerance class 0 (41%-100% damaged leaf area): 12
- number of maize T0 events in herbicide tolerance class 1 (16%-41% damaged leaf area): 49
- number of maize T0 events in herbicide tolerance class 2 (6%-15% damaged leaf area): 16
- number of maize T0 events in herbicide tolerance class 3 (0%-5% damaged leaf area): 12
